Where a chain is given by its changes, count along the chain named.
B1: 32A11 (antibody, V domains shown)
VH: EVQLLESGGGLVQPGGSLRLSCAASGFTFSSYWMSWVRQAPGKGLEWVSAISGSGGSTYYADSVKGRFTISRDNSKNTLYLQMNSLRAEDTAVYYCASSPLQWVDVWGQGTTVTVSS
VL: DIQMTQSPSSLSASVGDRVTITCRASESISIWLAWYQQKPGKAPKLLIYDASNLETGVPSRFSGSGSGTNFTLTISSLQPEDFATYYCQQADSFPFTFGPGTKVDIK
B2: 39G8 (antibody, V domains shown)
VH: B1 VH
VL: B1 VL with E27Q, S28G, I31P, N53K, N70D, D92Y, P100G, D105E
B3: 38A11 (antibody, V domains shown)
VH: B1 VH
VL: B1 VL with E27Q, I31S, N53T, E55Q, T56S, N70D, A91G, D92N
B4: 39B11 (antibody, V domains shown)
VH: B1 VH
VL: B1 VL with E27Q, I31S, D50E, N53R, E55Q, T56S, N70D, D92N
B5: 38C11 (antibody, V domains shown)
VH: B1 VH
VL: B1 VL with E27Q, I31R, Y49S, N53T, L54V, E55Q, T56S, N70D, D92N
B6: 38A10 (antibody, V domains shown)
VH: B1 VH
VL: B1 VL with E27Q, I31T, N53R, E55Q, T56N, N70D, A91G
B7: 32D11 (antibody, V domains shown)
VH: B1 VH
VL: B1 VL with E27Q, S30N, N70D, A91G, D92Y
B8: 32D2 (antibody, V domains shown)
VH: B1 VH
VL: B1 VL with E27Q, S28G, I31R, D50E, N53T, E55Q, T56S, N70D, D92Y, P100Q
B9: 39B3 (antibody, V domains shown)
VH: B1 VH
VL: B1 VL with E27Q, S30G, I31P, N70D, D92N
B10: 33G8 (antibody, V domains shown)
VH: QVQLVQSGAEVKKPGSSVKVSCKASGGTFSSSVISWVRQAPGQGLEWMGGIIPIFGTANYAQKFQGRVTITADESTSTAYMELSSLRSEDTAVYYCAREGLGCSGGSCYSGYYYGMDVWGQGTTVTVSS
VL: DIVMTQSPLSLPVTPGEPASISCRSSQSLLHSNGYNYLDWYLQKPGQSPQLLIYQASTLGSGVPDRFSGSGSGTDFTLKISRVEAEDVGVYYCMQGTHWPYTFGQGTKLEIK
B11: 34C1 (antibody, V domains shown)
VH: B10 VH
VL: DIVMTQSPLSLPVTPGEPASISCRSSESLLYSNGNTYLDWYLQKPGQSPQLLIYEVSNRASGVPDRFSGSGSGTDFTLKISRVEAEDVGVYYCMQGTRWPYTFGQGTKVEIK
B12: 23A11 (antibody, human IgG1, V domains shown)
VH: QVQLVQSGAEVKKPGSSVKVSCKASGYTFTDYSLHWVRQAPGQGLEWMGEVIPMFDTAYYAQTFQGRVTITADESTSTAYMELSSLRSEDTAVYYCAREPFTMVRGGRYYYYGMDVWGQGTTVTVSS
VL: DIQMTQSPSSLSASVGDRVTITCRASQNINKNLNWYQQKPGKAPKLLIYDASNLQSGVPSRFSGSGSGTDFTLTISSLQPEDFATYYCQHSETFGQGTKVEIK
B13: 23A8 (antibody, human IgG1, V domains shown)
VH: EVQLLESGGGLVQPGGSLRLSCAASGFTFSSSAMHWVRQAPGKGLEWVSGISGSGSSTYYADSVKGRFTISRDNSKNTLYLQMNSLRAEDTAVYYCARDNNYYYYMDVWGKGTTVTVSS
VL: DIQMTQSPSSLSASVGDRVTITCRASQSIGTWLAWYQQKPGKAPKLLIYAASTLRSGVPSRFSGSGSGTDFTLTISSLQPEDFATYYCQQSYSTPYTFGQGTKLEIK
B14: 19B6 (antibody, V domains shown)
VH: QVQLVQSGAEVKKPGASVKVSCKASGYTFTGYYMHWVRQAPGQGLEWMGIINPSGGSTSYAQKFQGRVTMTRDTSTSTVYMELSSLRSEDTAVYYCAKTAGYDWLPSGLGMDVWGQGTTVTVSS
VL: B13 VL with G30N, T31S, A50Y, T53S, R55Q, S91G, T94V, Y96L, T97S
B15: 19B10 (antibody, human IgG1, V domains shown)
VH: EVQLLESGGGLVQPGGSLRLSCAASGFTFSSYAMHWVRQAPGKGLEWVSGISNSGGNTYYADSVKGRFTISRDNSKNTLYLQMNSLRAEDTAVYYCARDNYYYYMDVWGKGTTVTVSS
VL: B13 VL with I29V, G30S, T53N, R55E, S56T, S91T

Target: T1, hPD-1-his (human, UniProt Q15116 25-167)
T1 construct: domain: IgV domain; monomer in solution; biotin-labelled where captured by streptavidin; also called biotin-hPD-1-his
T1 sequence (Q15116 other isoform, or with tags, fused parts or gaps limits assumed): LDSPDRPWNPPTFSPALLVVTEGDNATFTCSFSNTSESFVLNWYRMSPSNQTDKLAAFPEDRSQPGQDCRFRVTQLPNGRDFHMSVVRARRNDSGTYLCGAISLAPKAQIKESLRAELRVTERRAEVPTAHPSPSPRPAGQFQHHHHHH
Experiment: ELISA, PD-1-his on anti-his

First: B1
Second: B2
The “OD at 10 nM” value of the first is higher: 1.03 OD for the first, 0.484 OD for the second.

Going from B3 to B4, the “OD at 10 nM” value rises from 0.447 OD to 0.482 OD.

First: B5
Second: B6
The “OD at 10 nM” value of the first is lower: 0.404 OD for the first, 0.552 OD for the second.

Compared with B7, B8 is lower in “OD at 10 nM” value: 0.602 OD for the first, 0.591 OD for the second.

For B9, the “OD at 10 nM” value was 0.617 OD.

Target: T2, hPD-1-Fc (human, UniProt Q15116 25-167)
T2 construct: domain: IgV domain; also called human PD-1-Fc; not shown: human IgG1 Fc
T2 sequence (Q15116 25-167 limits assumed): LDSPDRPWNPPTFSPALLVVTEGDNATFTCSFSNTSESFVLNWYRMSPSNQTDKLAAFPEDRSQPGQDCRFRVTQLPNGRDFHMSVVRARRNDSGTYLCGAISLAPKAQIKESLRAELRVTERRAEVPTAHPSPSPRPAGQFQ
Experiment: ELISA, hPD1-Fc coated

B10 and B11 are within 1.5-fold of each other in EC50: 0.113 nM for the first, 0.147 nM for the second.

Compared with B10, B11 is higher in “OD450 at 10 nM” value: 0.9 OD450 for the first, 0.926 OD450 for the second.

Target: T1, hPD-1-his
Experiment: ELISA, hPD-1-his on anti-his

Compared with B10, B11 is 1.7-fold lower in EC50: 0.149 nM for the first, 0.0866 nM for the second.

Compared with B10, B11 is higher in “OD450 at 10 nM” value: 0.487 OD450 for the first, 0.521 OD450 for the second.

Target: T2, hPD-1-Fc
Experiment: blocking ELISA, hPD-1 to hPD-L1
Design: unit not given here

Compared with B1, B2 is higher in “Inhibition at 50 nM” value: 91.1 for the first, 93.2 for the second.

Compared with B3, B4 is higher in “Inhibition at 50 nM” value: 93.2 for the first, 93.3 for the second.

First: B5
Second: B6
The “Inhibition at 50 nM” value of the first is lower: 92.7 for the first, 92.8 for the second.

Going from B7 to B8, the “Inhibition at 50 nM” value falls from 91.9 to 91.7.

B9 was tested, and the “Inhibition at 50 nM” value was 92.9.

Target: T2, hPD-1-Fc
Experiment: ELISA, hPD-1-Fc coated

B12 and B13 are within 1.5-fold of each other in EC50: 0.167 nM for the first, 0.135 nM for the second.

B14 and B15 are within 1.5-fold of each other in EC50: 0.168 nM for the first, 0.188 nM for the second.

Compared with B12, B13 is lower in “OD at 10 nM” value: 2.04 OD450 for the first, 1.74 OD450 for the second.

Compared with B14, B15 is lower in “OD at 10 nM” value: 1.81 OD450 for the first, 1.73 OD450 for the second.

Target: T1, hPD-1-his
Experiment: ELISA, captured hPD-1-his

First: B12
Second: B13
The EC50 of the first is 1.9-fold higher: 1 nM for the first, 0.523 nM for the second.

First: B14
Second: B15
The EC50 of the first is higher: greater than 100 nM for the first, 5.34 nM for the second. The second is the more potent here.

First: B12
Second: B13
The “OD at 10 nM” value of the first is lower: 0.27 OD450 for the first, 1.15 OD450 for the second.

First: B14
Second: B15
The “OD at 10 nM” value of the first is lower: 0.3 OD450 for the first, 0.38 OD450 for the second.

Target: T2, hPD-1-Fc
Experiment: blocking ELISA, hPD-1-Fc to hPD-L1-Fc

B10 and B11 are within 1.5-fold of each other in IC50: 1.81 nM for the first, 2.01 nM for the second.

First: B10
Second: B11
The “Inhibition % at 5.6 nM” value of the first is higher: 89.9% for the first, 89.1% for the second.

Compared with B10, B11 is lower in “Inhibition % at 50 nM” value: 90.5% for the first, 89.3% for the second.

Target: T3, human PD-1 expressed on cells (human, UniProt Q15116 25-288)
T3 construct: whole, on cells
T3 sequence (Q15116 25-288): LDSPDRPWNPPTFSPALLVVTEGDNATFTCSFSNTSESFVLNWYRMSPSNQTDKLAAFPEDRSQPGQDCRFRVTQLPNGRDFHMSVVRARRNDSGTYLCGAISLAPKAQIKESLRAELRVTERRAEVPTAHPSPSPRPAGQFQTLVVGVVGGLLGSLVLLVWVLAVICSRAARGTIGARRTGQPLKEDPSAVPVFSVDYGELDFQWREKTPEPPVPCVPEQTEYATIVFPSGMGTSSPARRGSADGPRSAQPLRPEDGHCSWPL
Experiment: flow cytometry, SEB-activated PBMC donor one

Going from B12 to B13, the EC50 falls from 19 nM to 1.51 nM (13-fold). The second is the more potent here.

Going from B14 to B15, the EC50 rises from 13.6 nM to 117 nM (8.6-fold).

First: B12
Second: B13
The “MFI at 100 nM” value of the first is lower: 14.6 MFI for the first, 19.9 MFI for the second.

First: B14
Second: B15
The “MFI at 100 nM” value of the first is higher: 13.7 MFI for the first, 12.4 MFI for the second.

Target: T1, hPD-1-his
Experiment: ELISA, biotin-hPD-1-his on streptavidin

B10 and B11 are within 1.5-fold of each other in EC50: 0.197 nM for the first, 0.233 nM for the second.

Going from B10 to B11, the “OD450 at 10 nM” value rises from 0.909 OD450 to 0.945 OD450.

Target: T2, hPD-1-Fc
Experiment: blocking ELISA, hPD-1-Fc to hPD-L1-Fc
Remark: another data set of the same source

B12 and B13 are within 1.5-fold of each other in IC50: 2.61 nM for the first, 1.85 nM for the second.

Going from B14 to B15, the IC50 rises from 2.69 nM to 28.1 nM (10-fold).

First: B12
Second: B13
The “Inhibition % (3.3 nM)” value of the first is lower: 54.9% for the first, 80.5% for the second.

Going from B14 to B15, the “Inhibition % (3.3 nM)” value falls from 51.9% to 22.9%.

Going from B12 to B13, the “Inhibition % (30 nM)” value rises from 86.6% to 93.1%.

Going from B14 to B15, the “Inhibition % (30 nM)” value falls from 85.9% to 65.2%.

Target: T2, hPD-1-Fc
Experiment: ELISA, hPD-1-Fc coated
Remark: another data set of the same source

First: B1
Second: B2
The “OD at 10 nM” value of the first is lower: 0.921 OD for the first, 1.06 OD for the second.

Going from B3 to B4, the “OD at 10 nM” value rises from 1.03 OD to 1.08 OD.

Going from B5 to B6, the “OD at 10 nM” value rises from 1.02 OD to 1.06 OD.

First: B7
Second: B8
The “OD at 10 nM” value of the first is higher: 0.952 OD for the first, 0.922 OD for the second.

B9 was tested, and the “OD at 10 nM” value was 1.08 OD.

Target: T3, human PD-1 expressed on cells
Experiment: cell-based or functional assay

Compared with B13, B14 is 2.2-fold lower in “EC 50, Promega PD-1/PD-L1 blockade bioassay” value: 4.73 µg/mL for the first, 2.13 µg/mL for the second.

Going from B13 to B14, the Fold of induction rises from 2.81 fold to 3.04 fold.

Target: T3, human PD-1 expressed on cells
Experiment: flow cytometry, hPD1-293 cells

First: B12
Second: B13
The “MFI at 68 nM” value of the first is lower: 21.8 MFI for the first, 105 MFI for the second.

Going from B14 to B15, the “MFI at 68 nM” value rises from 20.8 MFI to 45.1 MFI.

Going from B13 to B15, the EC50 rises from 0.299 nM to 16 nM (54-fold). The first is the more potent here.

Target: T1, hPD-1-his
Experiment: ELISA, PD-1-his on streptavidin

Compared with B1, B2 is higher in “OD at 10 nM” value: 0.919 OD for the first, 0.981 OD for the second.

Going from B3 to B4, the “OD at 10 nM” value falls from 1.07 OD to 0.99 OD.

First: B5
Second: B6
The “OD at 10 nM” value of the first is higher: 1.05 OD for the first, 1 OD for the second.

Compared with B7, B8 is lower in “OD at 10 nM” value: 0.935 OD for the first, 0.932 OD for the second.

B9 was tested, and the “OD at 10 nM” value was 0.963 OD.

Target: T2, hPD-1-Fc
Experiment: SPR Biacore T200, PD-1-Fc immobilised

B2 and B3 are within 1.5-fold of each other in Kd: 0.794 nM for the first, 1.02 nM for the second.

Going from B6 to B7, the Kd falls from 0.834 nM to 0.554 nM (1.5-fold).

Target: T1, hPD-1-his
Experiment: SPR Biacore T200, PD-1-his immobilised

Compared with B2, B3 is 1.9-fold higher in Kd: 2.58 nM for the first, 4.93 nM for the second.

Compared with B6, B7 is 3.3-fold lower in Kd: 4.82 nM for the first, 1.44 nM for the second.

Target: T3, human PD-1 expressed on cells
Experiment: flow cytometry, SEB-activated PBMC donor three

Going from B12 to B13, the EC50 falls from 13.4 nM to 1.89 nM (7.1-fold).

First: B14
Second: B15
The EC50 of the first is 9.7-fold lower: 10.7 nM for the first, 104 nM for the second. The first is the more potent here.

Going from B12 to B13, the “MFI at 100 nM” value rises from 46.2 MFI to 80.3 MFI.

First: B14
Second: B15
The “MFI at 100 nM” value of the first is higher: 51.2 MFI for the first, 25.2 MFI for the second.

From patent publication US20230416363A1 (KADMON, published 2023)
